The target in experiment [1] is T1, MSRV complete ENV protein (ENV-T), recombinant from E. coli (MSRV (Multiple Sclerosis associated …)).
T1 construct: also called ENV-T 7A; His-ENV-T
T1 chain: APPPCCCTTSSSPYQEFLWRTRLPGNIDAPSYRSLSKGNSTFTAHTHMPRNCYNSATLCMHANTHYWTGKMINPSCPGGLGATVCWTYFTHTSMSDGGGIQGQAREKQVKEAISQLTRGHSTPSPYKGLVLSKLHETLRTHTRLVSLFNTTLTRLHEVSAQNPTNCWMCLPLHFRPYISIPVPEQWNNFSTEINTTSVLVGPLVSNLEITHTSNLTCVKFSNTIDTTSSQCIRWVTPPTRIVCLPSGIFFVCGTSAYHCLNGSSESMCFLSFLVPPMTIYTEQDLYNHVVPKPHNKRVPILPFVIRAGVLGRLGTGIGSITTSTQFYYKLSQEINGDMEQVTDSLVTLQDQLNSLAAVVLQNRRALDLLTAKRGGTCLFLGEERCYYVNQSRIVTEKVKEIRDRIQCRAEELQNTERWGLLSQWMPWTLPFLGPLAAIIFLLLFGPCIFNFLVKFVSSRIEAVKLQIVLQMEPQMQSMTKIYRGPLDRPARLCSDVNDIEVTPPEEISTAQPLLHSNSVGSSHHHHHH
Description: ELISA; ENV-T 7A 1 ug/ml coated; mAb 0.25 ug/ml. The method, then:
(§1) Protocol: Incubation 2 h at 37° C. […] Revelation is made by adding OPD substrate and reading optic density with a spectrophotometer after 30 min (Washing steps with PBS are performed between every step).
(In general: ELISA stands for enzyme-linked immunosorbent assay.)

In experiment [2] the target is T1, MSRV complete ENV protein (ENV-T), …. Kind of experiment: ELISA; coated ENV-T 7A 0.5; ligand 1 microgram. How it is done: (§2) II-1d Direct ELISA on Microplates Coated with ENV Antigen (ENV-T or ENV-SU as Described Above) [0159] Microwells were coated with 100 μl per well of ENV antigen diluted in 50 mM Sodium Bicarbonate, pH 9.6. Plate were sealed and incubated 2 hours at 37° C. under light agitation. [0160] Microwells were washed 4 times with 250 μl per well of PBS (Phosphate Buffer Saline). After the last, plates were inverted and blotted on absorbent paper to remove any residual buffer. [0161] 100 μl per well of detection antibody according to the present invention (GNbAC1 or its Fab fragment) diluted in PBS+BSA 1% (PBS with 1% of Bovine Serum Albumin) were added. Plate were sealed and incubated 1 hour at room temperature under light agitation. […] Microwells were washed 4 times with 250 μl per well of PBS. After the last, plates were inverted and blotted on absorbent paper to remove any residual buffer. [0163] […] Plate were sealed and incubated 1 hour at room temperature under light agitation. [0164] Microwells were washed 6 times with 250 μl per well of PBS. After the last, plates were inverted and blotted on absorbent paper to remove any residual buffer. [0165] 100 μl par well of Substrate Solution (1 tablet of o-Phenylenediamine (OPD) diluted in 10 ml of 0.05M Phosphate Citrate Buffer pH5+10 μl H2O2 30%, prepared at the last moment) were added. Plates were incubated 30 min at room temperature in the dark. […] 50 μl per well of Stop Solution 2N H2SO₄ were added. [0167] The absorbance was read at 490 nm within 30 minutes of stopping reaction.
(§3) Env-T antigen is coated onto microtiter ELISA plate wells with serial dilutions ranging from 1 μg/ml to about 0.01 μg/ml.

Experiment [3] shares this target. Kind of experiment: ELISA; ENV-T 7A 1 ug/ml coated; mAb 0.0156 ug/ml. The method, then: as §1
Experiment [4] has the same target. Kind of experiment: ELISA; ENV 1 ug/ml coated; mAb 1 ug/ml. How it is done:
as §1

Experiment [5] has the same target. Kind of experiment: ELISA; ENV-T 7A 1 ug/ml coated; mAb 0.5 ug/ml. The method, then: as §1
For experiment [6] the target is unchanged. Kind of experiment: ELISA; ENV-T 7A 1 ug/ml coated; mAb 0.125 ug/ml. How it is done: as §1
For experiment [7] the target is unchanged. Description: ELISA; coated ENV-T 7A 0.25; ligand 1 microgram. The method, then: as §2, §3
Experiment [8] shares this target. Description: ELISA; ENV 0.03125 ug/ml coated; mAb 1 ug/ml. The method, then: as §1
For experiment [9] the target is unchanged. Description: ELISA; ENV-T 7A 1 ug/ml coated; mAb concentration cell blank (top of series). The method, then: as §1
For experiment [10] the target is unchanged. Description: ELISA; coated ENV-T 7A 0.0625; ligand 1 microgram. How it is done:
as §2, §3

Experiment [11] has the same target. Description: ELISA; ENV-T 7A 1 ug/ml coated; mAb 0.0625 ug/ml. How it is done:
as §1

Experiment [12] shares this target. Description: ELISA; ENV 0.0078 ug/ml coated; mAb 1 ug/ml. The method, then: as §1

B1: GNbAC1 murine monoclonal antibody (IgG1/kappa) (antibody, V domains shown)
VH: QVQLQQSGAELVRPGAPVTLSCKASGYTFTDYEMHWVKQTPVHGLEWIGAVAPETGGTAYNQKFKGKATLTAAKSSSTAYMELRSLTSEDSAVYYCTSTVVPFAYWGQGTLVTVSA
VL: QIVLTQSPAIMSASPGEKVTISCSASSSVSYMYWYQQKPGSSPKAWIYRTSNLASGVPGRFSGSGSGTSYSLTISSMEAEDAATYYCQQYQSLPLTFGSGTKLEIK
notes: Murine IgG1/kappa from hybridoma; also called murine IgG1; muIgG
As for B1, the optic density in [1] worked out at 1.21 OD; in experiment [3], 0.166 OD; in [4], 2.22 OD; in experiment [5] it was 1.85 OD; in experiment [6] it was 0.945 OD; in experiment [8], 0.367 OD. Besides, the figures for the optic density in [9], in [11] and in [12] were 2 OD, 0.585 OD and 0.111 OD, respectively. In addition, the values for the optical density in experiment [2], in [7] and in [10] were 2.9 OD, 2.84 OD and 1.56 OD, respectively.

B2: Chimeric GNb AC1 IgG1 (human IgG1 constant regions with murine VH and VL) (antibody, V domains shown)
VH: QVQLQQSGAELVRPGAPVTLSCKASGYTFTDYEMHWVKQTPVHGLEWIGAVAPETGGTAYNQKFKGKATLTAAKSSSTAYMELRSLTSEDSAVYYCTSTVVPFAYWGQGTLVTVSA
VL: QIVLTQSPAIMSASPGEKVTISCSASSSVSYMYWYQQKPGSSPKAWIYRTSNLASGVPGRFSGSGSGTSYSLTISSMEAEDAATYYCQQYQSLPLTFGSGTKLEIK
notes: Human IgG1 heavy constant region and human kappa constant region, made in CHO cells; also called GNbAC1 chimeric IgG1; Ligand in human IgG1
With B2, the optic density in [1] turned out to be 2.64 OD; in [3], 1.27 OD; in experiment [4], 2.52 OD; in experiment [5], 2.54 OD; in experiment [6], 2.44 OD; in experiment [8] it was 1.6 OD. Also, the optic density in [9] was determined as 2.54 OD; in [11], 2.51 OD; in [12], 0.642 OD. Also, the optical density in [2] turned out to be 3 OD; in [7], 2.89 OD; in [10] it was 1.8 OD.

B3: Chimeric GNb AC1 IgG4 (human IgG4 constant regions with murine VH and VL) (antibody, V domains shown)
VH: QVQLQQSGAELVRPGASVTLSCKASGYTFTDYEMHWVKQTPVHGLEWIGAVAPETGGTAYNQKFKGKATLTAAKSSSTAYMELRSLTSEDSAVYYCTSTVVPFAYWGQGTLVTVSA
VL: QIVLTQSPAIMSASPGEKVTISCSASSSVSYMYWYQQKPGSSPKAWIYRTSNLASGVPGRFSGSGSGTSYSLTISSMEAEDAATYYCQQYQSLPLTFGSGTKLEIKR
notes: also called GNbAC1 chimeric IgG4; GNbAC1-IgC4
In the case of B3, the optic density was found to be 2.17 OD in [1]; 0.777 OD in experiment [3]; 2.67 OD in experiment [4]; 2.49 OD in experiment [5]; 1.81 OD in [6]; 1.09 OD in [8]. Besides, the figures for the optic density in experiment [9], in experiment [11] and in experiment [12] were 2.38 OD, 1.66 OD and 0.313 OD, respectively. Moreover, the figures for the optical density in experiment [2], in experiment [7] and in [10] were 2.89 OD, 2.52 OD and 1.52 OD, respectively.

These data come from US20110243962A1 (GENEURO, published 2011).
